Measurements: the supplement of paper PMC10724198
± gives the standard deviation of the averaged measurements.

Columns and labels:
Saccharomyces cerevisiae [1] = test: protein stability index of tFT-peptide fusion (C-terminal peptide) (PSI (0-1 scale)); higher = more stable (slower turnover)
Method: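 MPS profiling in S. cerevisiae of the tFT-X12 degron library: putative degron peptides plus stable controls, 12 aa, fused to the C-terminus of a sfGFP-mCherry timer. Cells are FACS-sorted into 8 mCherry/sfGFP bins and deep-sequenced. PSI runs from 0 (unstable) to 1 (stable). Backgrounds are wild type, das1Δ and doa10Δ at 30 °C, and wild type, das1Δ, cdc34-1 and cdc53-1 at 37 °C; 2-3 technical replicates each.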

Saccharomyces cerevisiae [2] = test: as above; details: genetic background: wild type; temperature: 30 C
[3] = genetic background: cdc34-1, temperature: 37 C
[4] = genetic background: cdc53-1, temperature: 37 C
[5] = genetic background: das1 deletion, temperature: 30 C
[6] = genetic background: das1 deletion, temperature: 37 C
[7] = genetic background: doa10 deletion, temperature: 30 C
[8] = genetic background: wild type, temperature: 30 C
[9] = genetic background: wild type, temperature: 37 C
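Further: PSI is a weighted mean of sequencing reads over stability bins, variants kept only with over 10 reads, mCherry proximal and sfGFP distal, peptide attached via GGGS linker.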

Row | Sequence | protein stability index (Saccharomyces cerevisiae [1]; [3]) | protein stability index (Saccharomyces cerevisiae [1]; [4]) | protein stability index (Saccharomyces cerevisiae [1]; [5]) | protein stability index (Saccharomyces cerevisiae [1]; [6]) | protein stability index (Saccharomyces cerevisiae [1]; [7]) | protein stability index (Saccharomyces cerevisiae [1]; [8]) | protein stability index (Saccharomyces cerevisiae [1]; [9]) | protein stability index (Saccharomyces cerevisiae [2])
1 | FPPHFLPLVFLS | 0.436 ± 0.035 | 0.5867 ± 0.0031 | 0.56 ± 0.026 | 0.67 ± 0.0083 | 0.0786 ± 0.017 | 0.0804 ± 0.02 | 0.0988 ± 0.0048 | 0.103 ± 0.0049
2 | FPRPLPVPLAVS | 0.153 ± 0.023 | 0.217 ± 0.06 | 0.193 ± 0.033 | 0.2901 ± 0.0012 | 0.15456 ± 3.3e-05 | 0.181 ± 0.0047 | 0.221 ± 0.005 | 0.25711 ± 0.00013
3 | FPWGRIFLRLRT | 0.34 ± 0.083 | 0.347 ± 0.025 | 0.47 ± 0.042 | 0.565 ± 0.01 | 0.5445 ± 0.0029 | 0.441 ± 0.015 | 0.5125 ± 0.0051 | 0.487 ± 0.049
4 | FQFTLWRTLLCS | 0.1843 ± 0.00066 | 0.248 ± 0.03 | 0.218 ± 0.026 | 0.3394 ± 0.0027 | 0.113 ± 0.015 | 0.137 ± 0.021 | 0.174 ± 0.0054 | 0.189 ± 0.0077
5 | FQLGLVFCVCSG | 0.432 ± 0.0073 | 0.438 ± 0.022 | 0.258 ± 0.041 | 0.469 ± 0.0075 | 0.244 ± 0.0076 | 0.258 ± 0.026 | 0.453 ± 0.016 | 0.367 ± 0.022
6 | FQWILYIAKRVV | 0.556 ± 0.095 | 0.671 ± 0.04 | 0.473 ± 0.036 | 0.603 ± 0.0069 | 0.259 ± 0.059 | 0.261 ± 0.044 | 0.442 ± 0.051 | 0.338 ± 0.021
7 | FRCPHAVKLVLV | 0.384 ± 0.021 | 0.404 ± 0.016 | 0.328 ± 0.037 | 0.471 ± 0.011 | 0.1947 ± 0.0014 | 0.214 ± 0.018 | 0.33212 ± 0.00028 | 0.311 ± 0.02
8 | FRFSSLLYILLS | 0.223 ± 0.067 | 0.274 ± 0.018 | 0.316 ± 0.017 | 0.402 ± 0.016 | 0.0923 ± 0.012 | 0.0651 ± 0.018 | 0.0868 ± 0.021 | 0.0959 ± 0.022
9 | FRTTGQAPPSKP | 0.674 ± 0.064 | 0.743 ± 0.013 | 0.633 ± 0.013 | 0.727 ± 0.022 | 0.64 ± 0.038 | 0.6444 ± 0.0056 | 0.71966 ± 0.0003 | 0.568 ± 0.2
10 | FSLRLFLVLALS | 0.3032 ± 0.0029 | 0.377 ± 0.01 | 0.261 ± 0.021 | 0.395 ± 0.012 | 0.123 ± 0.013 | 0.154 ± 0.028 | 0.227 ± 0.0026 | 0.193 ± 0.0034
11 | FSVTTLTILCLR | 0.305 ± 0.017 | 0.329 ± 0.011 | 0.273 ± 0.029 | 0.394 ± 0.017 | 0.49 ± 0.061 | 0.277 ± 0.02 | 0.382 ± 0.0086 | 0.3497 ± 0.0014
12 | FSYLSFLPSLAA | 0.545 ± 0.049 | 0.562 ± 0.034 | 0.466 ± 0.031 | 0.599 ± 0.017 | 0.442 ± 0.0053 | 0.468 ± 0.0066 | 0.5654 ± 0.0021 | 0.527 ± 0.048
13 | FTFPLPPSLLLV | 0.378 ± 0.023 | 0.389 ± 0.0036 | 0.322 ± 0.021 | 0.456 ± 0.011 | 0.2603 ± 0.00082 | 0.233 ± 0.028 | 0.37 ± 0.0071 | 0.347 ± 0.017
14 | FTGLCQGLWLGW | 0.691 ± 0.019 | 0.743 ± 0.014 | 0.658 ± 0.059 | 0.775 ± 0.02 | 0.684 ± 0.039 | 0.649 ± 0.013 | 0.7501 ± 0.0044 | 0.738 ± 0.025
15 | FVCLCGFLQVLS | 0.517 ± 0.018 | 0.564 ± 0.038 | 0.395 ± 0.036 | 0.632 ± 0.04 | 0.3687 ± 0.0013 | 0.411 ± 0.028 | 0.526 ± 0.028 | 0.489 ± 0.0078
16 | FVLWWGWSWLVV | 0.213 ± 0.01 | 0.30626 ± 6.5e-05 | 0.173 ± 0.027 | 0.318 ± 0.0055 | 0.152 ± 0.0023 | 0.16 ± 0.016 | 0.2824 ± 0.00063 | 0.235 ± 0.019
17 | FVRVFLRLGVVS | 0.14 ± 0.024 | 0.17 ± 0.039 | 0.194 ± 0.035 | 0.302 ± 0.019 | 0.175 ± 0.0045 | 0.177 ± 0.022 | 0.256 ± 0.0033 | 0.299 ± 0.027
18 | FVSVWVFLVSSF | 0.258 ± 0.025 | 0.381 ± 0.019 | 0.248 ± 0.032 | 0.457 ± 0.014 | 0.194 ± 0.017 | 0.225 ± 0.035 | 0.401 ± 0.039 | 0.312 ± 0.024
19 | FVVQSLNQMRLN | 0.693 ± 0.025 | 0.727 ± 0.02 | 0.656 ± 0.035 | 0.718 ± 0.019 | 0.354 ± 0.0096 | 0.379 ± 0.025 | 0.62 ± 0.025 | 0.441 ± 0.034
20 | FVYFLLVVCFAF | 0.1671 ± 0.0012 | 0.242 ± 0.014 | 0.184 ± 0.028 | 0.274 ± 0.0017 | 0.157 ± 0.0085 | 0.166 ± 0.021 | 0.249 ± 0.017 | 0.208 ± 0.011

Row | Sequence | protein stability index (Saccharomyces cerevisiae [1]; [3]) | protein stability index (Saccharomyces cerevisiae [1]; [4]) | protein stability index (Saccharomyces cerevisiae [1]; [5]) | protein stability index (Saccharomyces cerevisiae [1]; [6]) | protein stability index (Saccharomyces cerevisiae [1]; [7]) | protein stability index (Saccharomyces cerevisiae [1]; [8]) | protein stability index (Saccharomyces cerevisiae [1]; [9]) | protein stability index (Saccharomyces cerevisiae [2])
21 | FWESHVLPYRLL | 0.654 ± 0.036 | 0.78233 ± 0.00013 | 0.644 ± 0.014 | 0.7799 ± 0.0022 | 0.19 ± 0.008 | 0.223 ± 0.018 | 0.465 ± 0.028 | 0.239 ± 0.045
22 | FWFLWAKMLLSC | 0.253 ± 0.015 | 0.212 ± 0.064 | 0.252 ± 0.032 | 0.377 ± 0.0081 | 0.0958 ± 0.02 | 0.109 ± 0.027 | 0.138 ± 0.023 | 0.175 ± 0.022
23 | FWWVGCGWCRWG | 0.619 ± 0.019 | 0.73 ± 0.023 | 0.602 ± 0.036 | 0.708 ± 0.011 | 0.2446 ± 0.0022 | 0.269 ± 0.025 | 0.4351 ± 0.00096 | 0.378 ± 0.011
24 | FYPFHVFCLLIF | 0.18 ± 0.028 | 0.177 ± 0.037 | 0.254 ± 0.017 | 0.361 ± 0.012 | 0.18 ± 0.023 | 0.162 ± 0.028 | 0.228 ± 0.0053 | 0.243 ± 0.029
25 | GAICCFCCYLVF | 0.554 ± 0.0089 | 0.625 ± 0.026 | 0.505 ± 0.028 | 0.626 ± 0.035 | 0.463 ± 0.025 | 0.47 ± 0.014 | 0.597 ± 0.031 | 0.514 ± 0.043
26 | GALWPGALRFLN | 0.587 ± 0.045 | 0.747 ± 0.05 | 0.671 ± 0.023 | 0.81 ± 0.022 | 0.101 ± 0.014 | 0.104 ± 0.015 | 0.195 ± 0.035 | 0.171 ± 0.026
27 | GCLGYTLSCFTY | 0.563 ± 0.014 | 0.64 ± 0.038 | 0.525 ± 0.051 | 0.626 ± 0.0015 | 0.519 ± 0.019 | 0.51 ± 0.027 | 0.643 ± 0.015 | 0.401 ± 0.015
28 | GCVVLNTVAFIC | 0.492 ± 0.0084 | 0.583 ± 0.017 | 0.448 ± 0.025 | 0.625 ± 0.0075 | 0.108 ± 0.0055 | 0.127 ± 0.019 | 0.136 ± 0.018 | 0.167 ± 0.037
29 | GELDVRKLLKYF | 0.688 ± 0.02 | 0.718 ± 0.043 | 0.669 ± 0.011 | 0.768 ± 0.019 | 0.154 ± 0.034 | 0.172 ± 0.036 | 0.383 ± 0.0041 | 0.342 ± 0.086
30 | GFAFFIGLSFAF | 0.559 ± 0.015 | 0.588 ± 0.012 | 0.459 ± 0.025 | 0.5794 ± 0.0051 | 0.465 ± 0.0074 | 0.461 ± 0.01 | 0.565 ± 0.011 | 0.475 ± 0.034
31 | GFFCVWSLLFFN | 0.328 ± 0.045 | 0.395 ± 0.016 | 0.262 ± 0.045 | 0.449 ± 0.018 | 0.218 ± 0.031 | 0.187 ± 0.021 | 0.385 ± 0.005 | 0.283 ± 0.016
32 | GFFLCTCIRFWV | 0.452 ± 0.018 | 0.518 ± 0.034 | 0.386 ± 0.027 | 0.544 ± 0.01 | 0.2478 ± 0.0011 | 0.254 ± 0.028 | 0.421 ± 0.018 | 0.316 ± 0.016
33 | GFLRTVHFLLLG | 0.634 ± 0.1 | 0.675 ± 0.0077 | 0.575 ± 0.012 | 0.721 ± 0.037 | 0.225 ± 0.0044 | 0.251 ± 0.035 | 0.4702 ± 0.0038 | 0.354 ± 0.054
34 | GFNIFFFFFFFV | 0.21 ± 0.051 | 0.223 ± 0.035 | 0.202 ± 0.02 | 0.297 ± 0.019 | 0.281 ± 0.0099 | 0.173 ± 0.006 | 0.247 ± 0.021 | 0.326 ± 0.0089
35 | GFPFLCSFLLAS | 0.384 ± 0.0044 | 0.412 ± 0.0058 | 0.298 ± 0.04 | 0.472 ± 0.011 | 0.253 ± 0.005 | 0.291 ± 0.026 | 0.453 ± 0.005 | 0.382 ± 0.013
36 | GFPFLFILYFLC | 0.161 ± 0.03 | 0.257 ± 0.013 | 0.224 ± 0.02 | 0.385 ± 0.0061 | 0.111 ± 0.0087 | 0.0763 ± 0.036 | 0.105 ± 0.0019 | 0.158 ± 0.019
37 | GGGAGVVWVRLG | 0.5376 ± 0.0049 | 0.732 ± 0.022 | 0.642 ± 0.0084 | 0.7415 ± 0.0037 | 0.112 ± 0.0043 | 0.12 ± 0.027 | 0.166 ± 0.011 | 0.235 ± 0.035
38 | GGGVGGAVVLFW | 0.651 ± 0.023 | 0.764 ± 0.029 | 0.527 ± 0.016 | 0.718 ± 0.0021 | 0.528 ± 0.01 | 0.565 ± 0.027 | 0.716 ± 0.0033 | 0.408 ± 0.013
39 | GGGWCVWMVWFG | 0.482 ± 0.036 | 0.568 ± 0.0063 | 0.411 ± 0.03 | 0.595 ± 0.011 | 0.23 ± 0.006 | 0.261 ± 0.027 | 0.481 ± 0.036 | 0.401 ± 0.024
